T1: Cre 286::LRPHW (in E. coli) (Enterobacteria phage P1, UniProt P06956 SEQ:1-348)
T1 chain: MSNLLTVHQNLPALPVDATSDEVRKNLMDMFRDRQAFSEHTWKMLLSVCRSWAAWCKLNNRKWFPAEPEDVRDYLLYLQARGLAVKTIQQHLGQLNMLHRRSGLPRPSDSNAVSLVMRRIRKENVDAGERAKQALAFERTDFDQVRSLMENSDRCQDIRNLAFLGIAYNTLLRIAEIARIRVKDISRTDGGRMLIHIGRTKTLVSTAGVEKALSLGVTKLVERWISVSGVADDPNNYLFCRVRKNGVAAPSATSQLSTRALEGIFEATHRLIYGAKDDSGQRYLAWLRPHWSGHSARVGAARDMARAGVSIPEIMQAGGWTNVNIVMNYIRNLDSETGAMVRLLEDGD

T2: Cre 280::CGRTG (in E. coli) (Enterobacteria phage P1, UniProt P06956 SEQ:1-348)
T2 chain: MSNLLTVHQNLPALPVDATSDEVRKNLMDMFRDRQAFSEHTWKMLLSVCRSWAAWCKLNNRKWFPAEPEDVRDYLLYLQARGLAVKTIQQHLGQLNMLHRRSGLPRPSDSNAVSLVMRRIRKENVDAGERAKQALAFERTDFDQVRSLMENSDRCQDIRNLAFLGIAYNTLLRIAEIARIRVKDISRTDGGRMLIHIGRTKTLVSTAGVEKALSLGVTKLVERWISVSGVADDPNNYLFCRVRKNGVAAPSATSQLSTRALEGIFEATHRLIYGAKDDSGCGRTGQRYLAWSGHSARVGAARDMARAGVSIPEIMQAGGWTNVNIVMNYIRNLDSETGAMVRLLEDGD

T3: Cre 24::CGRIR (in E. coli) (Enterobacteria phage P1, UniProt P06956 SEQ:1-348)
T3 chain: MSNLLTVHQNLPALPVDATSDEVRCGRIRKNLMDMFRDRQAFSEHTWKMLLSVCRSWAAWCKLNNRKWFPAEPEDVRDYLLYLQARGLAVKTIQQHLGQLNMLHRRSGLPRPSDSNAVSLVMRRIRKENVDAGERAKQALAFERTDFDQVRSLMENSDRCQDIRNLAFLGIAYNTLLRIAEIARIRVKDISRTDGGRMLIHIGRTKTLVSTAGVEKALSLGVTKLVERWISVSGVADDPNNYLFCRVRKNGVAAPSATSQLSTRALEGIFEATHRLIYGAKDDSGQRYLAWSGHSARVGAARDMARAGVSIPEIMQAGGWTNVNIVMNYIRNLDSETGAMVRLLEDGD

T4: Cre 18::CGRNA+P15L (in E. coli) (Enterobacteria phage P1, UniProt P06956 SEQ:1-348)
T4 chain: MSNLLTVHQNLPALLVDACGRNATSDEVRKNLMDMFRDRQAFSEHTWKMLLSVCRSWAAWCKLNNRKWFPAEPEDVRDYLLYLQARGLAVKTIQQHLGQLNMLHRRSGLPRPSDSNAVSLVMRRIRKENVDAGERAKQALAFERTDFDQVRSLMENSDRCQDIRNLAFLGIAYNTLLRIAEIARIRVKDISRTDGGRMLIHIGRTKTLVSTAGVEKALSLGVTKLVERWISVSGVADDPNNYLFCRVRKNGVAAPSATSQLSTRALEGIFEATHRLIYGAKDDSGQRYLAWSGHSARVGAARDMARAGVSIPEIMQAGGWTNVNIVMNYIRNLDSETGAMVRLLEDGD

T5: Cre 286::LRPHW (Enterobacteria phage P1, UniProt P06956 SEQ:1-348)
T5 chain: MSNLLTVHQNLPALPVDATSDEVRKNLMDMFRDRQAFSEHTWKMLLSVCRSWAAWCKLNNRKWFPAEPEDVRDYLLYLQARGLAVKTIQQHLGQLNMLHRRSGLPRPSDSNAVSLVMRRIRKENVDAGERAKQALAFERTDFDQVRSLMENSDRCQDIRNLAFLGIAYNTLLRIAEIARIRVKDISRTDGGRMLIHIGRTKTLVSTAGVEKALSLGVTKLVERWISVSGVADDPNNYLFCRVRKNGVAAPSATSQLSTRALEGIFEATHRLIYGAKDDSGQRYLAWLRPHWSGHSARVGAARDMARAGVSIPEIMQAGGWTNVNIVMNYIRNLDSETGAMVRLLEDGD

T6: Cre 18::CGRNA+P15L (Enterobacteria phage P1, UniProt P06956 SEQ:1-348)
T6 chain: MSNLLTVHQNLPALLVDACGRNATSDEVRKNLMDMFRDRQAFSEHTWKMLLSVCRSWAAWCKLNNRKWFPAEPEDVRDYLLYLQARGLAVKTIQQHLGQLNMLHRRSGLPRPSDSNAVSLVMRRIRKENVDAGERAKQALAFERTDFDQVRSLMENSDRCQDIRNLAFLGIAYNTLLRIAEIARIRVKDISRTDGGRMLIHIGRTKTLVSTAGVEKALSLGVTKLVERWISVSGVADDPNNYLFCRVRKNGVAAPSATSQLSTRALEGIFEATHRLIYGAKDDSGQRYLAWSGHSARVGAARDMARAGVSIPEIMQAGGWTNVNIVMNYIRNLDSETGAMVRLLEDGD

T7: Cre 24::CGRIR (Enterobacteria phage P1, UniProt P06956 SEQ:1-348)
T7 chain: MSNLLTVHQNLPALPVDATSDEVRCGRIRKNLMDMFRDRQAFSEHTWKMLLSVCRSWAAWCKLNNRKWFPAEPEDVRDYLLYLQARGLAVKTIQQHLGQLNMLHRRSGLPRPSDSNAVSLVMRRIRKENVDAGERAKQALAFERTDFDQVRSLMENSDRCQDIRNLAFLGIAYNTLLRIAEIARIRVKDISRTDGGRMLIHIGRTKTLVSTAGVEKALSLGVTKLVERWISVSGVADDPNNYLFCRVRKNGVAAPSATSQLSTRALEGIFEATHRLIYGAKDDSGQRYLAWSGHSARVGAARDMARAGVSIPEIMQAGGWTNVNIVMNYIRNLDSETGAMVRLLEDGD


Legend:
[1] = target: T1, Cre 286::LRPHW (in E. coli); test: cell_activity; background 0.001%; settings: chain copies: 2
[2] = target: T2, Cre 280::CGRTG (in E. coli); test: cell_activity; background 0.001%; settings: chain copies: 2
[3] = target: T3, Cre 24::CGRIR (in E. coli); test: cell_activity; background 0.001%; settings: chain copies: 2
[4] = target: T4, Cre 18::CGRNA+P15L (in E. coli); test: cell_activity; background 0.001%; settings: chain copies: 2
Cre wt (in E. coli) = Cre wt (in E. coli) (Enterobacteria phage P1, UniProt P06956 SEQ:1-343); test: cell_activity; background 0.001%; settings: chain copies: 2
Cre wt = Cre wt (Enterobacteria phage P1, UniProt P06956 SEQ:1-343); test: cleavage_in_vitro; reference for mutants; cleavage strongly reduced on intact lox+3; 30 nM Cre, 10 mM MgCl2, 37 C; settings: chain copies: 2 per lox site (stated); label: 5'-32P
Procedure: (§1) DNA cleavage reactions were in a 12 μl reaction volume containing Cre reaction buffer, 83 ng/μl BSA, 8.3 ng/μl calf thymus DNA, […] appropriate ³²P-labeled DNA substrate and 30 nM of Cre. Reactions were incubated at 37° C. for 1 hour, terminated by addition of 12 μl of 2×SDS-gels loading buffer (x: 40 mM Tris-HCl pH 6.8, 50 mM DTT, 1.0% SDS, 7.5% Glycerol, 0.01% Bromphenol Blue), heated at 95° C. for 5 minutes and then analyzed by 15% SDS-PAGE. Gels were quantified using a PhosphorImager (Molecular Dynamics, Sunnyvale, Calif.) scanner.
(§2) The ability of each mutant to catalyze cleavage at the lox⁺³ site on an unnicked 54 bp substrate was examined. Cleavage by Cre is easily detected as a slowly moving band on a polyacrylamide gel resulting from the formation of a protein-DNA complex in which the catalytic tyrosine of Cre is covalently linked to a 3′ phosphate of the labeled DNA substrate at the site of cleavage (FIG. 3).

Cre 286::LRPHW = target: T5, Cre 286::LRPHW; test: cleavage_in_vitro; covalent complex, top strand; 30 nM Cre; settings: chain copies: 2 per lox site (stated); label: 5'-32P
Procedure: as §1, §2

Cre 18::CGRNA+P15L = target: T6, Cre 18::CGRNA+P15L; test: as above; settings: chain copies: 2 per lox site (stated); label: 5'-32P
Procedure: as §1, §2

Cre 24::CGRIR = target: T7, Cre 24::CGRIR; test: as above; settings: chain copies: 2 per lox site (stated); label: 5'-32P
Procedure: as §1, §2

Row | Binder | activity [1] | activity [2] | activity [3] | activity [4] | activity (Cre wt (in E. coli)) | covalent cleavage complex formation (Cre wt) [fold vs wt Cre] | cleavage (covalent Cre-DNA complex) (Cre 286::LRPHW) [fold vs wt Cre] | cleavage (covalent Cre-DNA complex) (Cre 18::CGRNA+P15L) [fold vs wt Cre] | cleavage (covalent Cre-DNA complex) (Cre 24::CGRIR) [fold vs wt Cre]
1 | lox+3 site (in plasmid or PCR fragment) (dsDNA) DNA 1: ACAACTTCGTATAATGATTTATGCTATACGAAGTTAT DNA 2: ATAACTTCGTATAGCATAAATCATTATACGAAGTTGT | 92 % recombination (KnR) | 61 % recombination (KnR) | 94 % recombination (KnR) | 56 % recombination (KnR) | 0.1 % recombination (KnR) |  |  |  | 
2 | lox+3 cleavage oligonucleotide KC341 duplex (dsDNA) DNA 1: TCGAGTGCACAACTTCGTATAATGATTTATGCTATACGAAGTTATCATTCGCTAG DNA 2: CTAGCGAATGATAACTTCGTATAGCATAAATCATTATACGAAGTTGTGCACTCGA |  |  |  |  |  | 1 | 4 | 20 | 4
